Measured values as given in patent US20210388087A1 (Chugai, published 2021).
Numbering of substitutions follows the chain as printed.

B1: CE115HA000/GLS3000 G89E (antibody, IgG1, name in Kabat numbering, V domains shown)
VH: QVQLVESGGGVVQPGRSLRLSCAASGFTFSNAWMHWVRQAPGKGLEWVAQIKAKSNNYATYYAESVKGRFTISRDDSKNSLYLQMNSLKTEDTAVYYCRYVHYGAYYGVDAWGQGTTVTVSS
VL: DIVMTQSPLSLPVTPGEPASISCRSSQSLVHSNRNTYLHWYQQKPGQAPRLLIYKVSNRFSGVPDRFSGSGSGTDFTLKISRVEAEDVGVYYCEQGTQVPYTFGQGTKLEIK
notes: one-arm IgG1
B2: CE115HA000/GLS3000 G89R (antibody, IgG1, name in Kabat numbering, V domains shown)
VH: B1 VH
VL: B1 VL with E94R
notes: one-arm IgG1
B3: CE115HA000/GLS3000 G89P (antibody, IgG1, name in Kabat numbering, V domains shown)
VH: B1 VH
VL: B1 VL with E94P
notes: one-arm IgG1
B4: CE115HA000/GLS3000 G89H (antibody, IgG1, name in Kabat numbering, V domains shown)
VH: B1 VH
VL: B1 VL with E94H
notes: one-arm IgG1
B5: CE115HA000/GLS3000 G89T (antibody, IgG1, name in Kabat numbering, V domains shown)
VH: B1 VH
VL: B1 VL with E94T
notes: one-arm IgG1
B6: CE115HA000/GLS3000 G89V (antibody, IgG1, name in Kabat numbering, V domains shown)
VH: B1 VH
VL: B1 VL with E94V
notes: one-arm IgG1
B7: CE115HA000/GLS3000 G91D (antibody, IgG1, name in Kabat numbering, V domains shown)
VH: B1 VH
VL: B1 VL with E94G, G96D
notes: one-arm IgG1
B8: CE115HA000/GLS3000 G89M (antibody, IgG1, name in Kabat numbering, V domains shown)
VH: B1 VH
VL: B1 VL with E94M
notes: one-arm IgG1
B9: CE115HA000/GLS3000 G89N (antibody, IgG1, name in Kabat numbering, V domains shown)
VH: B1 VH
VL: B1 VL with E94N
notes: one-arm IgG1
B10: CE115HA000/GLS3000 G91A (antibody, IgG1, name in Kabat numbering, V domains shown)
VH: B1 VH
VL: B1 VL with E94G, G96A
notes: one-arm IgG1
B11: CE115HA000/GLS3000 G89L (antibody, IgG1, name in Kabat numbering, V domains shown)
VH: B1 VH
VL: B1 VL with E94L
notes: one-arm IgG1
B12: CE115HA000/GLS3000 G89F (antibody, IgG1, name in Kabat numbering, V domains shown)
VH: B1 VH
VL: B1 VL with E94F
notes: one-arm IgG1
B13: CE115HA000/GLS3000 G91E (antibody, IgG1, name in Kabat numbering, V domains shown)
VH: B1 VH
VL: B1 VL with E94G, G96E
notes: one-arm IgG1
B14: CE115HA000/GLS3000 G89Q (antibody, IgG1, name in Kabat numbering, V domains shown)
VH: B1 VH
VL: B1 VL with E94Q
notes: one-arm IgG1
B15: CE115HA000/GLS3000 G89W (antibody, IgG1, name in Kabat numbering, V domains shown)
VH: B1 VH
VL: B1 VL with E94W
notes: one-arm IgG1
B16: CE115HA000/GLS3000 G89I (antibody, IgG1, name in Kabat numbering, V domains shown)
VH: B1 VH
VL: B1 VL with E94I
notes: one-arm IgG1
B17: CE115HA000/GLS3000 G89K (antibody, IgG1, name in Kabat numbering, V domains shown)
VH: B1 VH
VL: B1 VL with E94K
notes: one-arm IgG1
B18: CE115HA000/GLS3000 G89Y (antibody, IgG1, name in Kabat numbering, V domains shown)
VH: B1 VH
VL: B1 VL with E94Y
notes: one-arm IgG1

Target: T1, CD3 epsilon homodimer protein (UniProt P07766 23-126)
T1 construct: also called CD3 (CD3 epsilon)
T1 sequence (P07766 23-126): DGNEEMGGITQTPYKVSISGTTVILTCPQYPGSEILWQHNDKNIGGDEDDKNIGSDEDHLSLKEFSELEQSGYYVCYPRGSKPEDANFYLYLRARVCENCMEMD
Test: SPR, antibody over immobilised CD3e homodimer;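 note: SPR at 25 °C with CD3 epsilon homodimer amine-coupled to a CM4 sensor chip and antibody flowed over as analyte in HBS-EP+ running buffer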
Procedure: An appropriate amount of CD3 epsilon homodimer protein was immobilized onto Sensor chip CM4 (GE Healthcare Japan Corp.) by the amine coupling method. Then, the antibody having an appropriate concentration was injected thereto as an analyte and allowed to interact with the CD3 epsilon homodimer protein on the sensor chip. Then, the sensor chip was regenerated by the injection of 10 mmol/L glycine-HCl (pH 1.5). The assay was conducted at 25 degrees C., and HBS-EP+(GE Healthcare Japan Corp.) was used as a running buffer. […] Each parameter was calculated using Biacore T200 Evaluation Software (GE Healthcare Japan Corp.).

Binder	KD ratio to GLS3000
B1	34.6
B2	4130
B3	1.8
B4	1.44
B5	1.1
B6	1.4
B7	44.8
B8	1.96
B9	1.2
B10	28.1
B11	2.38
B12	3.34
B13	48.5
B14	2.11
B15	2.2
B16	1.11
B17	1.8
B18	1.12
